How the values were obtained:
[1] = target: secreted recombinant GA733-2E antigen (human) (UniProt P16422); test: ELISA, antigen coated at 5 µg/ml, antibody at 10 µg/ml
[2] = target: native GA733-2 antigen (human) (UniProt P16422); test: as above
[3] = target: bovine serum albumin (bovine) (UniProt P02769); test: ELISA, BSA coated at 5 µg/ml, antibody at 10 µg/ml
Chain of UniProt P02769 (P02769 25-607 limits assumed): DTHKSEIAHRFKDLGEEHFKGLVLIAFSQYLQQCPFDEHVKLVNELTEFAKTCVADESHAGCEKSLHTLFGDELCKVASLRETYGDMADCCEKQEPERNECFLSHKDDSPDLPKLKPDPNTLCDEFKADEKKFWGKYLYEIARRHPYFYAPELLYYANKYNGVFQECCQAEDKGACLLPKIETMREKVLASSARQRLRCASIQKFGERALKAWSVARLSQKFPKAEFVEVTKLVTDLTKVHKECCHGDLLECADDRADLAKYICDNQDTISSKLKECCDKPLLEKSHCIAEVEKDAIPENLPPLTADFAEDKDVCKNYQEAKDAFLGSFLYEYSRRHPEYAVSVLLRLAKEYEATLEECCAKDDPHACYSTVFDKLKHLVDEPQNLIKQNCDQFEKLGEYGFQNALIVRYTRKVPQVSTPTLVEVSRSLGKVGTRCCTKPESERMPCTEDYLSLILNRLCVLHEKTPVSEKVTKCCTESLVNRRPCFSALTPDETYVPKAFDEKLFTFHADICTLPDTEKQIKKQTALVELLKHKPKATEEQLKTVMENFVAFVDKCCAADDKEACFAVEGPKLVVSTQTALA

Row | Substance | Maximal optical density (at 405 nm) [1] | Maximal optical density (at 405 nm) [2] | Maximal optical density (at 405 nm) [3]
1 | murine mAb GA733 (antibody) | 1.3 OD 405 nm | 0.86 OD 405 nm | 0.02 OD 405 nm
2 | Normal mouse IgG (antibody) | 0 OD 405 nm | 0 OD 405 nm | 0 OD 405 nm
